Laboratory results: patent US20170051068A1 (Janssen / Centocor, published 2017)

Columns and labels:
[1] = target: T1, Soluble human BCMA ECD (AB Biosciences, Catalog no. P011Xp) (human, UniProt Q02223 1-54); experiment: cell-based or functional assay
T1 sequence: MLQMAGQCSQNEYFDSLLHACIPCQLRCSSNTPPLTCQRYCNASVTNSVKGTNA

[2] = target: T2, Fc-fusion cyno BCMA (in-house; Cat# BCMW6.001) (cyno, UniProt Q02223 1-54 (human entry)); experiment: SPR, Fc-BCMA, two-state model, step 2
T2 construct: also called Fc-BCMA Cy; cyno Fc-BCMA; not shown: Fc part

[3] = target: T2, Fc-fusion cyno BCMA (in-house; Cat# …); experiment: SPR, Fc-BCMA, two-state model, first complex
[4] = target: T2, Fc-fusion cyno BCMA (in-house; Cat# …); experiment: SPR (Biacore T200), biotinylated Fc-BCMA on streptavidin chip
Method: (§1) The binding affinities of anti-BCMA×CD3 bispecific antibody (BCMB72) with Fc-fusion BCMA proteins (human, cyno and mouse) were measured by Surface Plasmon Resonance (SPR) using a Biacore T200 system (GE Healthcare, NJ).
(§2) No protein was immobilized on flow-cell 1 and was used as a reference surface. Binding kinetics experiments were performed at 25° C. in running buffer (PBS pH 7.4, 0.005% P20, 3 mM EDTA). BCMB72 was prepared in running buffer starting from 100 nM to 0.16 nM at 5-fold dilutions. These solutions were injected for 5 min (association phase) at 50 μL/min and the dissociation was monitored for 15 min by flowing running buffer. The chip surface was regenerated by short injections of glycine (pH 1.5) and running buffer at 100 μL/min. Binding kinetics analysis of BCMB72 interactions with Fc-BCMA was performed by double referencing of the data by subtracting the curves generated by buffer injection from the reference-subtracted curves for analyte injections. Global kinetics fitting of the sensorgrams was performed using a Two-State binding Model using Biacore T200 Evaluation Software (GE Healthcare, NJ). The binding affinity results from the Two-State binding model for different BCMA species are reported as First Complex (KD1) and Final Complex (KD) (FIG. 5).

[5] = target: T3, Recombinant mouse BCMA-Fc fusion protein (R&D Systems catalog #593-BC-050) (mouse, UniProt O88472 1-49); experiment: as above
T3 construct: also called mBCMA-Fc; Fc-fusion mouse BCMA; not shown: Fc part of the bought fusion protein
T3 chain: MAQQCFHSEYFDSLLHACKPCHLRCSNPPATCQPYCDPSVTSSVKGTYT
Method: as §1, §2

[6] = target: T2, Fc-fusion cyno BCMA (in-house; Cat# …); experiment: SPR, Fc-BCMA, two-state model, step 1 (kon1); first step (kon1)
[7] = target: T2, Fc-fusion cyno BCMA (in-house; Cat# …); experiment: SPR, Fc-BCMA, two-state model, step 1 (koff1); first step (koff1)
[8] = target: T2, Fc-fusion cyno BCMA (in-house; Cat# …); experiment: SPR, Fc-BCMA, two-state model, Final KD; Final complex KD, two-state model
[9] = target: T2, Fc-fusion cyno BCMA (in-house; Cat# …); experiment: SPR (Biacore T200), biotinylated Fc-BCMA Cyno on a streptavidin chip, BCMB72 as analyte, two-state binding model, Final Complex; column RANGE prints 5.36 - 7.27
Method: as §1, §2

[10] = target: T3, Recombinant mouse BCMA-Fc fusion …; experiment: SPR (Biacore T200), biotinylated Fc-BCMA Mouse on a streptavidin chip, BCMB72 as analyte, two-state binding model, Final Complex; column RANGE prints 62.0 - 82.9
Method: as §1, §2

[11] = target: T4, cyno BCMA on HEK cells (cyno, UniProt Q02223 1-184 (human entry)); experiment: flow cytometry, HEK cells expressing cyno BCMA
T4 construct: also called HEK-expressing cyno BCMA
T4 sequence (Q02223 other isoform, or with tags, fused parts or gaps): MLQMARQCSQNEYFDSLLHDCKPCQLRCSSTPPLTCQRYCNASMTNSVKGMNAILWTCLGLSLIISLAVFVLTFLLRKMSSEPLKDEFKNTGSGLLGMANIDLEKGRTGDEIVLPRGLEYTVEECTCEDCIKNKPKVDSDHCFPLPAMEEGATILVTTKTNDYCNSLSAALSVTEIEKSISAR

B1: BCMB72 (BCMA×CD3 bispecific antibody, BCMB69 × CD3B219) (bispecific antibody, human IgG4 S228P, lambda, F234A L235A)
heavy 1: EVQLVESGGGLVQPGGSLRLSCAASGFTFNTYAMNWVRQAPGKGLEWVARIRSKYNNYATYYAASVKGRFTISRDDSKNSLYLQMNSLKTEDTAVYYCARHGNFGNSYVSWFAYWGQGTLVTVSSASTKGPSVFPLAPCSRSTSESTAALGCLVKDYFPEPVTVSWNSGALTSGVHTFPAVLQSSGLYSLSSVVTVPSSSLGTKTYTCNVDHKPSNTKVDKRVESKYGPPCPPCPAPEAAGGPSVFLFPPKPKDTLMISRTPEVTCVVVDVSQEDPEVQFNWYVDGVEVHNAKTKPREEQFNSTYRVVSVLTVLHQDWLNGKEYKCKVSNKGLPSSIEKTISKAKGQPREPQVYTLPPSQEEMTKNQVSLTCLVKGFYPSDIAVEWESNGQPENNYKTTPPVLDSDGSFLLYSKLTVDKSRWQEGNVFSCSVMHEALHNHYTQKSLSLSLGK
light 1: QTVVTQEPSLTVSPGGTVTLTCRSSTGAVTTSNYANWVQQKPGQAPRGLIGGTNKRAPGTPARFSGSLLGGKAALTLSGVQPEDEAEYYCALWYSNLWVFGGGTKLTVLGQPKAAPSVTLFPPSSEELQANKATLVCLISDFYPGAVTVAWKADSSPVKAGVETTTPSKQSNNKYAASSYLSLTPEQWKSHRSYSCQVTHEGSTVEKTVAPTECS
heavy 2: not shown
light 2: SYVLTQPPSVSVAPGQTARITCGGNNIGSKSVHWYQQPPGQAPVVVVYDDSDRPSGIPERFSGSNSGNTATLTISRVEAGDEAVYYCQVWDSSSDHVVFGGGTKLTVLGQPKAAPSVTLFPPSSEELQANKATLVCLISDFYPGAVTVAWKGDSSPVKAGVETTTPSKQSNNKYAASSYLSLTPEQWKSHRSYSCQVTHEGSTVEKTVAPTECS
notes: IgG4 made by Fab arm exchange; first heavy/light pair is the CD3B219 arm, second pair the BCMB69 arm; also called B69 × B219; BCMB72.004
Change of EC50 of cytotoxicity on H929 cells in the presence of soluble BCMA ECD [1]: 2 fold | koff2 [2]: 0.000785 s⁻¹ | kon2 [2]: 0.00106 s⁻¹ | KD1 [3]: 3.87 nM | fold of average KD compared to human BCMA [4]: ~36 fold | fold of average KD compared to human BCMA [5]: ~402 fold | kon [6]: 1.26e+06 M⁻¹ s⁻¹ | koff [7]: 0.00483 s⁻¹ | Kd [8]: 1.65 nM | Kd [9]: 6.5 nM | Kd [10]: 72.4 nM

B2: BCMB69 (antibody, V domains shown)
VH: QLQLQESGPGLVKPSETLSLTCTVSGGSISSGSYFWGWIRQPPGKGLEWIGSIYYSGITYYNPSLKSRVTISVDTSKNQFSLKLSSVTAADTAVYYCARHDGAVAGLFDYWGQGTLVTVSS
VL: SYVLTQPPSVSVAPGQTARITCGGNNIGSKSVHWYQQPPGQAPVVVVYDDSDRPSGIPERFSGSNSGNTATLTISRVEAGDEAVYYCQVWDSSSDHVVFGGGTKLTVLG
notes: also called BCBM69; antibody derived from the M2 hybridoma
binding result [11]: binds
